Test results reported in PMC6743362.

Target: microtubules (MT fraction from mouse brain) (mouse (endogenous in mouse brain)) (UniProt P68369)
Test: co-sedimentation

Substance | MT-bound fraction | MT-unbound fraction
recombinant human tau lacking both PRR2 and MTBD (ΔPRR2-MTBD) (from UniProt P10636-6 1-383) (natural protein) | 0.059 | 0.941
recombinant human tau lacking the proline-rich region 2 (ΔPRR2) (from UniProt P10636-6 1-383) (natural protein) | 0.839 | 0.161
recombinant human tau, 0N4R variant (WT tau) (from UniProt P10636-6 1-383) (natural protein) | 0.989 | 
